This is an account of results in the nanobody polyreactivity screen of Harvey et al. (2022).

This data set in a line: yeast display, Sf9 membrane polyspecificity reagent, FACS + sequencing; frameworks hold sequencing errors. Put shortly:
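Nanobodies came from a synthetic yeast display library in Saccharomyces cerevisiae BJ5465, induced with galactose for 36–48 hours and stained for 1 hour at 4 °C with 10% biotinylated, detergent-solubilized Sf9 membrane reagent. Cells were enriched on streptavidin microbeads and then FACS-sorted, with low and high (top ~1%) gates set on anti-HA fluorescence for expression and streptavidin fluorescence for reagent binding. Each polyreactivity label reflects the gate a clone came from. Genes were amplified by colony PCR, sequenced by MiSeq 2 × 250 and filtered by CDR length.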
As to “QVQHVESGGGLVQSGGSLRLSCAASGRNFKFNPMGWYRQPPGKERELVAGITWTGSTTSYADSVKGRFTISRDNATNPVYLQMNSLKPEDTEVYYCDGDKIGFWYHGFYYRGQGTQVTVSS”, the “polyreactivity (PSR sort gate)” value is listed as “low polyreactivity”.
With “QVQLVESGGGLVQAGGSLRLSCAASGRIFAYYAMGWYRQAPGKERELVAAISGGGGSTYYADSVKGRFTISRDNAKNTVYLQMNSLKPEDTAVYYCAARYTVYSATGRYYYWGQGTQVTVSS”, the “polyreactivity (PSR sort gate)” value is on record as “high polyreactivity”.
On to “QVQLVESGGGLVQAGGSLRLSCAASGRIFGYYAMGWYRQAPGKERELVAAITWSGGTYYADSVKGRFTISRDNAKNTVYLQMNSLKPEDTAVYYCAKSVRNGWQSRFGYWGQGTQVTVSS”, for which the “polyreactivity (PSR sort gate)” value is reported as “high polyreactivity”.
Turning to “QVQLVESGGGLVQAGGSLRLSCAASGLIFLYYAMGWYRQAPGKERELVAAISSSGSTYYADSVKGRFTISRDNAKNTVYLQMNSLKPEDTAVYYCAAAGYLYPYRYYYWGQGTQVTVSS”, the “polyreactivity (PSR sort gate)” value is listed as “high polyreactivity”.
Turning to “QVQLVESGGGLVQAGGSLRLSCAASGSIFTQYAMGWYRQAPGKERELVAAISWRGGRTYYADSVKGRFTISRDNAKNTVYLQMNSLKPEDTAVYYCNRVYGAHHYYYGIGTYDYWGQGTQVTVSS”, the “polyreactivity (PSR sort gate)” value is given as “high polyreactivity”.
On to “QVQLVESGGGLVQAGGSLRLSCAASGRIFSSNAMGWYRQAPGKERELVASISSTGSTKYADSVKGRFTISRDKAKNTVYLQMNSLKQEDSAVYYCAAGRYLWHFTFDYWGQGTQVTVSS”, for which the “polyreactivity (PSR sort gate)” value is “low polyreactivity”.
As for “QVQLVESGGGLVQAGGSLRLSCAASGFTFKSNAMGGYRQAPGKEREKVAAIDSRGDRTYYADSVKGRFTISRDNAKNTVYLQMNSLKPEDTAVYYCATKWRTYWSSGEYWGQGTQVTVSS”, the “polyreactivity (PSR sort gate)” value is given as “high polyreactivity”.
In the case of “QVQLVESGGGLVQAGGSLRLSCAASGRIFVGYALGWYRQAPGKERELVAAINRSGSSTYYADSVKGRFTISRDNAKNTVYLQMNSLKPEDTAVYYCNARSGNRYGPRYDYWGQGTQVTVSS”, the “polyreactivity (PSR sort gate)” value was “high polyreactivity”.
Take “QVQLVESGGGLVQAGCSLRLSCAASGSTFSYIAMGWYRQAPGKERELVAAITSGSSTNYADSVKGRFTISRDNAKYTVYLQMNSLKPEDTAVSYCAADGYQDKYYWLETWVGYWGHGTQVTVSS”: the “polyreactivity (PSR sort gate)” value is “low polyreactivity”.
In the case of “QVQLVESGGGLVQAGGSLRLRCAASGIIFTDYAMGWYRQAPGKERELVAAISSGGGSTYYAHSVKGRFTISRDNAKNTVYFLMNSLKPDVTAVYYCAAEGYLISGAGDYLYDYYWGQGTQVTVSS”, the “polyreactivity (PSR sort gate)” value is given as “high polyreactivity”.
With “QVHLVESGGGLVQAGGSLRISCAASGFTFRKYSMGWYRQAPGKERELVAGITSGGSTNNADSVKGRFTISRDNAKNTVYLQMNSLKPEDTAVYYCNAARYYAYIGDYWGQCTQVTVSS”, the “polyreactivity (PSR sort gate)” value is listed as “high polyreactivity”.
With “QVQLVESGGGLVQAGGSLRLSCAASGRIFSIYGMGWYRQAPGKERELVAVISGSVAITYYADSVKGRFTISRDNAKNTVYLQMNSLKPEDTAVYYCAAVYQSRLWARYYYWGQGSQVTVSS”, the “polyreactivity (PSR sort gate)” value is “high polyreactivity”.
For the sequence “QVQLVESGGGLVQAGGSLRLSCAASGSTFAIYAMGWYRQAPGKERELVASISGGSTNYADSVKGRFTISRDNAKNTVYLQMNSLKPEDTAVYYCAARGALHHWYRYDYWGQVTQVTVSS”, the “polyreactivity (PSR sort gate)” value is “low polyreactivity”.
As for “QVQLVESGGGLVQAGGSLRLSCAASGSTFGYYAMGWSRQAPGKEREFVAAITYGDGNTYYADSVKGRFTISRDNAKNTVYLQMNRLKREDTEVYYCAKYYWGPTGAHGGYGYWGQGTQVTVCS”, the “polyreactivity (PSR sort gate)” value is “low polyreactivity”.
As for “QVQLVESGGGLVQAGGILRLSCASSGITFLTYTMGWYRQAPAKERELVAAISRSGGRTYYADSVKGRFTISRDNEKITVYLLMNSLKPEDTAVYYCDAVSATQDFDYWGQGTQETVSS”, the “polyreactivity (PSR sort gate)” value is reported as “high polyreactivity”.
In the case of “QVQLVESGGGIVQAGGSLRLSCAASGSTFLYYAMGWYRQAPGKERELVAAISSGGSTYYADSVKGRFTISRDNAKNTVYLQMNSLKPEDTAVYYCAAVRPGYVAYYYWGQGTQVTVSS”, the “polyreactivity (PSR sort gate)” value is “high polyreactivity”.
For the sequence “QVQLVETGGGLVQAGGSLRLSCAASGRIFLGYAMGCYRQAPGKERELVAAISGRGGRTNYADSVKGRFTISRDNAKNTVYLQMNSLKPEDTAVYYCATVPYTASRYEYWGQGTQVTVSS”, the “polyreactivity (PSR sort gate)” value is listed as “high polyreactivity”.
“QVQLVESGGGLVQAGGSLRLSCAASGSTFRGYAMGWYRQAPGKERELVAAIRFSGGRTYYADSVKGRFTISRDNAKNTVYLQMNSLKPEDTAVYYCAKDYRPGWTGTDFYYWGQGTQVTVSS”: the “polyreactivity (PSR sort gate)” value was “low polyreactivity”.
Consider “QVQLEESGGGLVQAGGSLRLSCAASGRTFSIYAMGWYRQAPGKERELVASITGRGTRTYYADSVKGRFTISRDNAKNTVYLQMNSLKPEDTAVYYCNARGKVQSSYDDDYWGQGTQVTVSS”, for which the “polyreactivity (PSR sort gate)” value is on record as “high polyreactivity”.
As to “QVQLVESGGGLVQAGGSLRLSCAASGFIFADYAMGWYRPAPGKERELVAAISSGGRTKYADSVKGRFTISRDNAKNTVYLQMNSLIPDDTAVYYCAKALRRVPRIQAYPVPQGDYWGHGTQVTVSS”, the “polyreactivity (PSR sort gate)” value is “high polyreactivity”.
For “QVQLVESGGGLVQAGGSLRLSCAASGFTFLVNAMGWYRQAPGKERELVAAISSGGSTYYADSVKGRFTISRDNAKNTVYLQMNSLKPEDTAVYYCAAPTDFLFWEFDYWGQCTQVTVSS”, the “polyreactivity (PSR sort gate)” value is reported as “low polyreactivity”.
In the case of “QVQLVESGGGLVQAGGSLRLSCAASGSIFASYAMGWYRQAPGKERELVAAISRSGGSTYYADSVKGRFTISRDNAKNTVYLQMNSLKPEDTAVYYCATGKIREDDYWGQGTQVTVSS”, the “polyreactivity (PSR sort gate)” value is on record as “high polyreactivity”.
For “QVQLVESGGGLVQAGGSLRLSCAASGSIFNPYDMGWYRQAPGKERELVAAIDWSGGSTYYADSVKGRFTISRDNAKNTVYLQMNSLKPEDTAVYYCNAESYQDTLFGADNDYDYWGQGTQVTVSS”, the “polyreactivity (PSR sort gate)” value is reported as “low polyreactivity”.
With “QVQLQESGGGLVQAGGSLCMSCAASGSISDYIFMGWYRQAPGKEREFVAGIGIGGNTNYADSVKGRFTISRDNAKNTVYLQMNSLKPEDTAVYYCAANATYTDYYAYWGQGTQVTVSS”, the “polyreactivity (PSR sort gate)” value was “low polyreactivity”.
To “QVQLVETGGGLVQAGGSLRLSCAASGRIFWWYAMGWYRQAPGKERELVAAISTGSRTYYADSVKGRFTISRDNAKNTVYLQMNSLKPEDTAVYYCVADGLYSVSRSSIFEYWGQGTQVTVSS” belongs “low polyreactivity”.
On to “QVQLVESGGGLVQAGGSLRLSCAASGLTFGWYAMGWYRQAPGKERELVASITRRSGSTYYADSVKGRFTISRDNAKNTVYLQMNSLKPEDTAVYYCNAVPGYVYYYQYWGQGTQVTVSS”, for which the “polyreactivity (PSR sort gate)” value is on record as “high polyreactivity”.
As for “QVQLVESGGGLVQAGGSLRLSCAASGSISVANAMGWYRQAPGKERELVAAITDSGDDTYYADSVKGRFTISRDNAKNTVYLQMNSLKPEDTAVYYCAVEAWSVPPYDYWGQGTIVTVSS”, the “polyreactivity (PSR sort gate)” value is given as “low polyreactivity”.
Take “QVQLVESGGGLVQAGGSLRLSCAASGFTFERNAMGWYRQAPGKERELVATISQSGTNTYYADSVKGRFTISRDNAKNTVYLQMNSLKPEDTAVYYCNARYLFYRYDYWGQGTQVTVSS”: the “polyreactivity (PSR sort gate)” value is “low polyreactivity”.
Take “QVQLVESGGGLVQAGGSLRLSCAASGRIFKSYVMGWYRQAPGKERELVAAITRTGGSTYYADSVKGRFTISRDNAKYTVYLQMNSLTPEDTAVYYCNARYSWPRATWYDYWGQGTQVTVSS”: the “polyreactivity (PSR sort gate)” value is listed as “high polyreactivity”.
Turning to “QVQLVESGGGLVQAGGSLRLSSAASGSTFWFNAMGWYRQAPVKERELVAGISERGGRTYYADSVKGRFTISRDNAKNTVYLQMNRLKPEDPAVYYSNAGISPRRTTYYKYDYWGQGTQVNVSS”, the “polyreactivity (PSR sort gate)” value is reported as “high polyreactivity”.
In the case of “QVQLVESGGCLVQAGGSLRLSCASSGITFFEYAMGCYRQAPGKERELVAVITSGGSTNYADSVKGRFTISRDNAKNTVYLQMNSLKPEDTAVYYCNARVVKYRWWYDYYYWGQGTQVTVSS”, the “polyreactivity (PSR sort gate)” value is given as “low polyreactivity”.
To “QDQLVESGVGLVQEGGSLRLSCAASGSILKRYVMGWYRQAPGKERELVAAISSGSRTYYADSVKGRFTISRDNAKNTVYLQMNSLKPEDTAVYYCAADLTYKYHYDYWGQGTQVTVSS” belongs “high polyreactivity”; to “QVQLLESGGGLVQAGGSLRVSCAASGFTFSRNVMGWYRQAPGKERELVAAITSGSTYYADSVKGRFTISRDNAKNTVYLQMNRLKPEDTAVYYCAKRGRLRNYDYWGQGTQVTVSS”, “high polyreactivity”.
Consider “QVQLVESGGGLVQAGGSLRLSCAASGFTYGYYAMGGYRQAPGKERELVAAITNGGRTNYADSVKGRFTISRDNAKNTVYLQMNSLKPEDTAVYYCATDHYWSREGYWGQGTQVTVSS”, for which the “polyreactivity (PSR sort gate)” value is recorded as “low polyreactivity”.
On to “QVQLVESGGGLVQAGGSLRLSCAASGFIFNRYAMGWYRQAPGKERELVAAITASGGSTYYADSVKGRFTISRDNAKNTVYLQMNSLKQEDTAVYYCAARAWLYSRRYGYWGQGTQVTVSS”, for which the “polyreactivity (PSR sort gate)” value is reported as “high polyreactivity”.
Turning to “QVQLVESGGGLVQAGGSLRLSCAASGRTFGKYAMGWYIQAPGKEREFVAAISRSGGNTYYADSVKGRFTISRDNAKNTVYLQMNSLKPEDTAVYYCARGLSTYVLSHGLEYRTYYYWGQGTQVTVTS”, the “polyreactivity (PSR sort gate)” value was “high polyreactivity”.
Consider “QVQLVESGGGLVQAGGSLRLSCAASGITFALYAMGWYRQAPGKERELVAAISYSGGRTYYADSVKGRFTISRDNAKNTVYLQMNSLKPEDTAVYYCAAGGSGSGPYGYGYWGQGTQVTVSS”, for which the “polyreactivity (PSR sort gate)” value was “high polyreactivity”.
To “QVQLVESGGGLVQAGGSLRLSCAPSGFTFGYYAMGWYRQAPGKERELVAAITYSGGSTYYADSVKGRFTISRDNAKNTVYLQMNSLKPEDTAVYYCNAYDRRYYYGRWYGEFDYWGLGTQVTVSS” belongs “low polyreactivity”; to “QGQLVESGGGLVQAGGSLRLSCAASGLIFYPNGMGWYREAPGKERELVAAITYSDGSTYYADSVKGRFTISRDNAKNTVYLQMNSLKAEDTAVYYCNRVTRWTYNYWGQGTQVTVSS”, “high polyreactivity”.
Turning to “QVQLVESGGGLVQAGGSLRLSCAASGYTQPANGMGLYRQAPGKERELVAAISFIAGSTYYADSVKGRFTISRDNAKNTVYLQMNSLKPEDTAVYYCATQFPPSTIYDYWGQGTQVSVSS”, the “polyreactivity (PSR sort gate)” value is on record as “low polyreactivity”.
As for “QVQLVESGAGLVQAGGSLRLICAASGSTSTTYTMGWYRQAPGKERELVAAISYSGGSTYYADSVKGRFTISRDNAKNTVYLQMNSLKPEDTAVYYCAAQSFVGWREYESWGQGTQVTVSS”, the “polyreactivity (PSR sort gate)” value is on record as “high polyreactivity”.
